In patent US20090318342A1, “Compounds” (IMPERIAL INNOVATIONS LIMITED, priority 2005, published 2009) one finds Ki, LPS stimulated TNFα release by monocyte-derived macrophages (ELISA) and inhibition of TACE activity (% inhibition data, which are given here for two molecules.

Experiment [1] concerns the target ADAMTS-5 (Homo sapiens (Human)) (UniProt Q9UNA0). Briefly: GST-IGD-FLAG substrate assay, Ki(app).
Experiment [2] concerns the target T1, ADAMTS-4 (as used in Example 4; form not stated) (Homo sapiens (Human)) (UniProt O75173).
T1 sequence: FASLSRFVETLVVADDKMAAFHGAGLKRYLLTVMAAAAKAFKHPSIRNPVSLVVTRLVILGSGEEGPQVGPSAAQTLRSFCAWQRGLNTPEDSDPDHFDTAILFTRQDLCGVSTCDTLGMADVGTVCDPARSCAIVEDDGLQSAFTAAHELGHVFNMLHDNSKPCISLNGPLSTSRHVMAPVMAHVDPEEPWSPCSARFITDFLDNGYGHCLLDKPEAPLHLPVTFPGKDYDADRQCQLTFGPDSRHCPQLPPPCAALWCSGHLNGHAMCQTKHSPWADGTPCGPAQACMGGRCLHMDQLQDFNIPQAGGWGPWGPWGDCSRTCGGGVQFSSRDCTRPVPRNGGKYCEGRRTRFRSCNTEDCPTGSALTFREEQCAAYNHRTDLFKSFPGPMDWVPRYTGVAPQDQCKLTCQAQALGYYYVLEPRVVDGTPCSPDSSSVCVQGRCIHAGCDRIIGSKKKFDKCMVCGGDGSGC
Briefly: GST-IGD-FLAG substrate assay, Ki(app).

The target of experiment [3] is soluble form of TACE in which the transmembrane and C-terminal cytoplasmic domains are deleted (TACE R651) (human) (UniProt P78536). Briefly: TACE inhibition kinetics, Ki(app), pH 9.0, fit with equation 3 (cooperative).
The target is the same in experiment [4]. Briefly: TACE inhibition kinetics at pH 7.5.
In experiment [5] the target is full-length collagenase 1 (MMP-1) (Homo sapiens (Human)) (UniProt P03956). Briefly: MMP-1 inhibition under the conditions used for TACE activity measurements.
Experiment [6] has as its target TACE/ADAM17 on human monocytic cells (THP-1 cells; monocyte-derived macrophages) (human) (UniProt P78536).
Experiment [7] concerns the target catalytic domain of stromelysin 1 (MMP-3(ΔC)) (Homo sapiens (Human)) (UniProt P08254). Briefly: enzyme inhibition kinetics, Ki(app), as in Example 1.
In experiment [8] the target is gelatinase A (MMP-2) (Homo sapiens (Human)) (UniProt P08253). Described as above.
Experiment [9] concerns the target full-length collagenase 1 (MMP-1) (Homo sapiens (Human)) (UniProt P03956). The experiment is described as above.
In experiment [10] the target is soluble form of TACE in which the transmembrane and C-terminal cytoplasmic domains are deleted (TACE R651) (human) (UniProt P78536).

Sequence of full-length collagenase 1 (MMP-1) (Homo sapiens (Human)) (P03956 100-469 limits assumed): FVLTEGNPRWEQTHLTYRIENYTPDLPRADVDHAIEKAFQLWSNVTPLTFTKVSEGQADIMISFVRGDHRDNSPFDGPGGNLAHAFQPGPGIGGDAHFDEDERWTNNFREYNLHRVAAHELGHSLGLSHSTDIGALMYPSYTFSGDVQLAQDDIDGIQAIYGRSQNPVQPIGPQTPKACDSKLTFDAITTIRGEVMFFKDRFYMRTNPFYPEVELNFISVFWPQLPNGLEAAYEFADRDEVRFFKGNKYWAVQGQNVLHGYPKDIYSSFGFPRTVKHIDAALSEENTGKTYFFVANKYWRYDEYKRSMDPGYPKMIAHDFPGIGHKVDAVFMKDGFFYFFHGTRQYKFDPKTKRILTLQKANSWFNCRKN
Sequence of gelatinase A (MMP-2) (Homo sapiens (Human)) (P08253 110-660 limits assumed): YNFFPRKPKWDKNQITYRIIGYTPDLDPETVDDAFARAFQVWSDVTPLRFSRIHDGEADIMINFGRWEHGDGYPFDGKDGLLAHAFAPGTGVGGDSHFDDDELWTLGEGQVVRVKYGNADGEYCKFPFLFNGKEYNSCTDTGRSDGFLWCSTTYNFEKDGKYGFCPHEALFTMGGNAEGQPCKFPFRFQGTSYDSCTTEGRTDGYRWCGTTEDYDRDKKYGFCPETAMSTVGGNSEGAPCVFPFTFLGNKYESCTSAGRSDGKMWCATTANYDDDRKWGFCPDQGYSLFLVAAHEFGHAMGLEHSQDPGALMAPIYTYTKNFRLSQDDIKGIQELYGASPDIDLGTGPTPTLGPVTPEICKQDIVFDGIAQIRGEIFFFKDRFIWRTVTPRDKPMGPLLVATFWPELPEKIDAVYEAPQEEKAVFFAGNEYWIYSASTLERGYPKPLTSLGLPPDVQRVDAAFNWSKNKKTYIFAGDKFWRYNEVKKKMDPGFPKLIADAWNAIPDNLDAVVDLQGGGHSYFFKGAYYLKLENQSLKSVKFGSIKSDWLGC

B1: wild-type N-TIMP-3 (N-terminal inhibitory domain of tissue inhibitor of metalloproteinase-3), C-terminally His-tagged (protein)
chain: CTCSPSHPQDAFCNSDIVIRAKVVGKKLVKEGPFGTLVYTIKQMKMYRGFTKMPHVQYIHTEASESLCGLKLEVNKYQYLLTGRVYDGKMYTGLCNFVERWDQLTLSQRKGLNYRYHLGCN
For B1, the Ki worked out at 0.4 nM in experiment [1]; 2.4 nM in [2]; 13.7 nM in experiment [3]; 26 nM in experiment [4]; 1.6 nM in experiment [5]; 1.8 nM in experiment [7]. For the same molecule, the Ki was 5.1 nM in experiment [8] and 8.2 nM in experiment [9]. The same molecule showed an LPS stimulated TNFα release by monocyte-derived macrophages (ELISA) in [6] of 180 nM.

B2: (-2A)N-TIMP-3 (protein)
chain: AACTCSPSHPQDAFCNSDIVIRAKVVGKKLVKEGPFGTLVYTIKQMKMYRGFTKMPHVQYIHTEASESLCGLKLEVNKYQYLLTGRVYDGKMYTGLCNFVERWDQLTLSQRKGLNYRYHLGCN
In experiment [10], B2 came in with an inhibition of TACE activity (% inhibition at 100 nM) of 80 to 90. Moreover, the Ki in experiment [7] is greater than 250 nM.
